Reference: the supplement of paper PMC11136658

Tested on: peptide library, one residue held at a place counted from the Y acceptor
Experiment: relative phosphorylation of the sub-library (ratio to the mean residue at this position); higher = residue favoured
Method in brief: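 Purified recombinant kinases were given 50 μM ATP with γ-32P-ATP and biotinylated Tyr-centred peptide library mixtures for 90 min in 384-well plates. Peptides bound to streptavidin membranes were rinsed and quantified by phosphorimaging, and intensities were normalized per position by the sum of the 18 randomized residues (16 with the Ser/Thr-free library) and multiplied by that number. The reported values are phosphorylation relative to the mean randomized residue.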

EPHA5, construct: aa662-948, human, sequence (P54756 662-948, looked up): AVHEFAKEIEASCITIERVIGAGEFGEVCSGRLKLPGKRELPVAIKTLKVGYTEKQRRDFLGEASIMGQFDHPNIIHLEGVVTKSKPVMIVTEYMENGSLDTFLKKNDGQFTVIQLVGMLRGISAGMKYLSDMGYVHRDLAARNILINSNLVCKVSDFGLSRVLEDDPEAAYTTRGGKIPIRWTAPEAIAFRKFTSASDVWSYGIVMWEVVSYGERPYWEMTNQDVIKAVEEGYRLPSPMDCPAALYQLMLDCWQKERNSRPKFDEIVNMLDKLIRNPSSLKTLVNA

EPHA5, construct: aa662-948, human (from UniProt P54756)
relative phosphorylation
Details | at +1 | at +2 | at +3 | at +4 | at +5 | at -1 | at -2 | at -3 | at -4 | at -5
A fixed | 1.5 | 0.555 | 0.644 | 0.75 | 1 | 0.44 | 1.06 | 0.741 | 1.03 | 0.879
D fixed | 1.25 | 1.88 | 0.493 | 1.3 | 1.25 | 2.92 | 1.34 | 1.4 | 1.22 | 1.11
E fixed | 3.4 | 2.46 | 0.463 | 1.35 | 1.27 | 1.59 | 1.56 | 1.74 | 1.5 | 1.07
F fixed | 0.713 | 1.41 | 1.41 | 1.07 | 1.01 | 1.03 | 0.671 | 1.35 | 1.11 | 1.06
G fixed | 0.825 | 0.275 | 0.426 | 1.21 | 1.2 | 0.215 | 1.14 | 0.85 | 1.18 | 1.14
H fixed | 0.529 | 0.834 | 0.862 | 1.2 | 0.903 | 0.651 | 0.89 | 1.03 | 1.02 | 1.08
I fixed | 1.05 | 0.877 | 2.62 | 0.716 | 0.778 | 1.83 | 0.725 | 0.845 | 0.83 | 0.973
K fixed | 0.174 | 0.329 | 0.218 | 0.638 | 0.64 | 0.203 | 0.779 | 0.604 | 0.778 | 0.921
L fixed | 0.847 | 0.869 | 1.85 | 0.707 | 0.916 | 1.74 | 0.789 | 0.877 | 1 | 0.983
M fixed | 1.53 | 0.976 | 1.37 | 0.965 | 0.97 | 0.815 | 0.604 | 0.935 | 0.891 | 1.02
N fixed | 0.48 | 1.18 | 0.477 | 0.805 | 0.906 | 2.59 | 1.28 | 1.12 | 0.966 | 1.11
P fixed | 0.144 | 0.481 | 1.39 | 1.19 | 1.53 | 0.333 | 1.21 | 0.953 | 1.16 | 0.983
Q fixed | 1.31 | 0.857 | 0.867 | 1.01 | 0.961 | 0.465 | 1.23 | 0.966 | 1.2 | 1.18
R fixed | 0.224 | 0.47 | 0.35 | 0.832 | 0.763 | 0.232 | 0.883 | 0.751 | 0.885 | 0.968
S fixed | 0.756 | 0.622 | 0.514 | 0.925 | 1.04 | 0.437 | 1.39 | 0.868 | 0.749 | 0.822
T fixed | 0.62 | 0.772 | 0.563 | 0.937 | 0.859 | 0.924 | 0.885 | 0.893 | 0.64 | 0.824
V fixed | 1.5 | 0.912 | 1.95 | 0.729 | 0.802 | 0.932 | 0.829 | 0.806 | 0.776 | 0.757
W fixed | 1.15 | 2.25 | 1.52 | 1.68 | 1.2 | 0.662 | 0.729 | 1.29 | 1.05 | 1.12
pThr fixed | 1.77 | 2.65 | 0.559 | 1.37 | 1.06 | 1.87 | 1.13 | 0.996 | 0.952 | 0.917
pTyr fixed | 2.61 | 6.1 | 1.08 | 1.72 | 1.61 | 2.82 | 1.52 | 1.25 | 1.29 | 1.15

ERBB2, construct: aa676-end, human (from UniProt P04626)
relative phosphorylation
Details | at +1 | at +2 | at +3 | at +4 | at +5 | at -1 | at -2 | at -3 | at -4 | at -5
A fixed | 0.734 | 0.684 | 0.603 | 0.869 | 1.51 | 0.72 | 0.953 | 0.764 | 0.972 | 0.899
D fixed | 0.56 | 1.04 | 0.571 | 0.774 | 0.521 | 1.88 | 1.26 | 1.48 | 1.19 | 1.04
E fixed | 0.87 | 1.19 | 0.493 | 0.79 | 0.575 | 1.91 | 1.58 | 1.88 | 1.41 | 0.983
F fixed | 1.73 | 1.58 | 2.19 | 1.09 | 0.958 | 1.12 | 0.99 | 1.27 | 1.02 | 1.06
G fixed | 0.526 | 0.504 | 0.621 | 0.943 | 1.06 | 0.567 | 1.15 | 1 | 1.2 | 1.12
H fixed | 1.18 | 0.884 | 0.867 | 1.02 | 1.61 | 0.846 | 0.936 | 0.855 | 0.872 | 1.04
I fixed | 1.5 | 0.984 | 1.86 | 0.764 | 0.878 | 1.62 | 0.932 | 0.726 | 0.985 | 0.909
K fixed | 0.462 | 0.78 | 0.474 | 0.991 | 0.87 | 0.476 | 0.674 | 0.659 | 0.834 | 0.992
L fixed | 1.53 | 0.938 | 1.51 | 0.8 | 1.13 | 1.28 | 0.973 | 0.963 | 0.994 | 1.06
M fixed | 1.17 | 0.924 | 1.26 | 1.23 | 1.25 | 0.986 | 0.837 | 0.937 | 0.959 | 1.01
N fixed | 0.59 | 1.03 | 0.65 | 0.843 | 0.667 | 1.07 | 1.08 | 1.1 | 1.01 | 1.14
P fixed | 0.395 | 0.714 | 0.72 | 1.18 | 1 | 0.617 | 0.922 | 0.795 | 0.924 | 0.987
Q fixed | 0.923 | 1.02 | 0.821 | 0.959 | 0.679 | 0.849 | 1.07 | 0.876 | 1.17 | 1.04
R fixed | 0.555 | 0.837 | 0.669 | 1.18 | 1.28 | 0.506 | 0.825 | 0.824 | 0.952 | 1.03
S fixed | 0.757 | 0.928 | 0.608 | 0.808 | 0.849 | 0.693 | 0.921 | 0.989 | 0.851 | 0.887
T fixed | 0.943 | 0.874 | 0.68 | 0.844 | 0.944 | 0.811 | 0.966 | 0.948 | 0.761 | 0.883
V fixed | 2 | 0.98 | 1.26 | 0.807 | 1.08 | 1.3 | 1.03 | 0.851 | 0.814 | 0.915
W fixed | 1.59 | 2.12 | 2.14 | 2.11 | 1.14 | 0.748 | 0.91 | 1.08 | 1.1 | 0.991
pThr fixed | 1.22 | 1.36 | 0.495 | 0.755 | 0.514 | 1.99 | 1.7 | 1.7 | 1.26 | 1.14
pTyr fixed | 6.36 | 3.29 | 0.953 | 0.93 | 0.82 | 3.1 | 1.62 | 2.2 | 1.91 | 1.25
